In paper doi:10.1101/2022.11.04.515179:

Tests used:
GST-OGG1 G245A = GST-OGG1 G245A (human, UniProt O15527 1-345, G245A); test: EMSA
OGG1 WT (untagged) = OGG1 WT (untagged) (human, UniProt O15527 1-345); test: EMSA
OGG1 WT (untagged), sequence (O15527 whole entry): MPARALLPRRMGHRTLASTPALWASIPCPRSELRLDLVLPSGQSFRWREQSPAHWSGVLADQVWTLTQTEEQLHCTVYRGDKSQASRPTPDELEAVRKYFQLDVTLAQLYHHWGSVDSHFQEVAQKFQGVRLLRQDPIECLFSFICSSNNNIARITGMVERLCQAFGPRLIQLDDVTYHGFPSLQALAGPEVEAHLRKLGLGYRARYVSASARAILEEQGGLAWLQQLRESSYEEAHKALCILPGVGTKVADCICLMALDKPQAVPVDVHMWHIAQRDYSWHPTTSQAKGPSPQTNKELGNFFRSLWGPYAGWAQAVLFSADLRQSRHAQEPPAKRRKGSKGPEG

GST-OGG1 G245A, sequence (O15527 whole entry G245A): as the sequence (O15527 whole entry) above, with G245A counted along it

B1: Cy5 34-mer 8-oxoG:C (dsDNA)
DNA 1: GGCTTCATCGTTGTCGCAGACCTGGTGGATACCG
DNA 2: CGGTATCCACCAGGTCTGCGACAACGATGAAGCC
modifications: 8-oxoG at position 16 of strand 1
B1: no binding (GST-OGG1 G245A).

B2: 32P 24-mer 8-oxoG:C (dsDNA)
DNA 1: CTGATCGATGACGCCTGACATGAT
DNA 2: ATCATGTCAGGCGTCATCGATCAG
modifications: 8-oxoG at position 13 of strand 1
B2: binds (OGG1 WT (untagged)).
